Test results as given in paper PMC7423924, “A fluorogenic cyclic peptide for imaging and quantification of drug-induced apoptosis” (Nature Communications, 2020).
Values joined by “and” are separate entries in the source; they are usually repeats but may differ in a detail not shown here. Equal entries are not always repeated.

Test system: neutrophils (myeloid)
Assay: Flow cytometry staining before and after induction of apoptosis, neutrophils
Type: cell-based, human
Conditions: single replicates, listed as Ann V
Method: Fig. 2 Apo-15 binds to apoptotic cells of different origin in multiple environments. a Representative fluorescence confocal microscopy images (from three independent experiments) human apoptotic (yellow arrows) and viable (white arrows) cells from different lineages: BL-2 (lymphoid), neutrophils (myeloid), and primary airway epithelial cells (epithelial). Cells were incubated with Apo-15 (100 nM, green), AF647-Annexin V (5 nM, red), and Hoechst 33342 (7 μM, blue) for 10 min and imaged under a fluorescence confocal microscope (λexc.: 405, 488, 633 nm: λem.: 450, 525, 670 nm). Scale bars: 10 µm. b Divalent cation-independent binding of Apo-15 to apoptotic cells of different origin (top plots: lymphoid cells, bottom plots: myeloid cells). Mixtures of apoptotic (highlighted in green dots) and viable cells (highlighted in black dots) were stained with AF647-Annexin V (25 nM) and Apo-15 (100 nM) in the presence of 2 mM CaCl2 (left) or 2.5 mM EDTA (right). Representative histograms showing Apo-15 binding (x-axis) vs AF647-Annexin V binding (y-axis) acquired on 5L LSR flow cytometer (n = 5). c Cells were sorted on their Apo-15 positivity (green populations in panel b) or negativity (black populations in panel b). Gating strategy in Supplementary Fig. 7. Morphological analysis (four independent images from two independent experiments) of cytocentrifuge preparations of Apo-15-positive and Apo-15-negative cells under brightfield microscopy (scale bar: 10 µm). d Quantification of fluorescence staining of neutrophils (myeloid, n ≥ 5), BL-2 cells (lymphoid, n ≥ 3) and primary airway epithelial cells (epithelial, n = 5) before and after induction of apoptosis and upon treatment with Apo-15 and AF647-Annexin V. Data acquired on 5 L LSR flow cytometer and presented as mean values ± SEM. P values obtained from two-tailed t tests. Source data (in d) are provided as a Source data file. […]
Work with human peripheral blood leukocytes complied with all relevant ethical regulations and informed consent was obtained. […]

B1: Annexin V: fluorescently-labeled (AF647) annexin V, PS-binding protein (protein, UniProt P08758 2-320, looked up)
Annexin A5: AQVLRGTVTDFPGFDERADAETLRKAMKGLGTDEESILTLLTSRSNAQRQEISAAFKTLFGRDLLDDLKSELTGKFEKLIVALMKPSRLYDAYELKHALKGAGTNEKVLTEIIASRTPEELRAIKQVYEEEYGSSLEDDVVGDTSGYYQRMLVVLLQANRDPDAGIDEAQVEQDAQALFQAGELKWGTDEEKFITIFGTRSVSHLRKVFDKYMTISGFQIEETIDRETSGNLEQLLLAVVKSIRSIPAYLAETLYYAMKGAGTDDHTLIRVMVSRSEIDLFNIRKEFRKNFATSLYSMIKGDTSGDYKKALLLLCGEDD
modifications: AF647 label
Neutrophils 0 h, before induction of apoptosis
  Stained cells (flow cytometry): 2.6% and 3.7% and 2.0% and 1.4% and 1.1%
Neutrophils 18 h, EDTA (2.5 mM)
  Stained cells (flow cytometry): 0.0% and 0.5%
Neutrophils after 18 h culture at 37 °C
  Stained cells (flow cytometry): 51.9% and 32% and 59.2% and 56.9% and 54.7% and 56.2% and 68% and 42.1% and 61.5% and 44.8% and 31.8% and 64.6% and 60.9% and 43.7% and 65.3% and 57.6% and 48% and 40.7% and 35.2% and 65.8% and 72.2% and 52.7% and 70.5% and 46.6%
